Laboratory results: patent publication US20250145716A1 (RAKUTEN MEDICAL, published 2025)

Assays:
[1] = target: T1, human PD-L1 expressed on cells (human, UniProt Q9NZQ7 19-290); assay: flow cytometry, PD-L1-expressing CHO cells, MFI (FITC)
T1 construct: whole, on cells; One entry covers all human PD-L1-bearing cells; also called huPD-L1 on CHO cells (CHO-hPD-L1); PD-L1 on A431 cells
Method: Wild-type (wt) Chinese hamster ovary (CHO) cells (ATCC) and CHO cells engineered to express huPD-L1 (BPS Bioscience) were seeded at 200,000 cells in 50 μL FACS buffer (PBS containing 1% FBS and 5 mM EDTA) per well of a 96-well plate. Cell viability was assessed by adding 50 μL 2×Zombie Violet (BioLegend). Dead cell controls were also prepared and 2×Zombie violet was added. After incubating 20-30 minutes at room temperature, protected from light, 150 μL FACS buffer were added to each well. The plates were centrifuged, and the supernatant was aspirated. […] The plates were incubated 30 minutes on ice, protected from light. 150 μL FACS buffer were then added to each well and the plate was centrifuged. The supernatant was removed and the cells were washed three times in 200 μL FACS buffer. […] The cells were incubated 30 minutes on ice, protected from light. 150 μL FACS buffer were then added to each well and the plate was centrifuged. Supernatant was removed and the cells were washed twice with 200 μL FACS buffer. The cells were then resuspended in FACS buffer and analyzed by CytoFLEX using the appropriate channels. After gating for whole, single, live cells, the MFI in the APC channel (or FITC channel for human control samples) was normalized to the signal from hybridoma media alone (or isotype control for human control). MFI fold over media alone was determined for each clone supernatant tested.

6xHis-tagged huPD-L1 = target: T2, 6xHis-tagged huPD-L1 (human, UniProt Q9NZQ7 19-238); assay: ELISA, plate-coated 6xHis huPD-L1, OD 450 nm
T2 construct: also called human PD-L1 (RD Systems 9049-B7); extracellular domain of human PD-L1 fused to a His tag; not shown: 6xHis tag
T2 sequence (Q9NZQ7 19-238): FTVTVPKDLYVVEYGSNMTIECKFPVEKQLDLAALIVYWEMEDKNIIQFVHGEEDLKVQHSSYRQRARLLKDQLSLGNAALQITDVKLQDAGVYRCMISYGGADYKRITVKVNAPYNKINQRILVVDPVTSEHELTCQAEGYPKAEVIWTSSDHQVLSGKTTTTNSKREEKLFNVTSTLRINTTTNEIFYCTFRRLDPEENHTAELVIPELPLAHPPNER
Method: (§1) Hybridoma supernatants were tested for binding to huPD-L1, cyPD-L1, and muPD-L1 by ELISA. Briefly, 30 μL 6xHis-tagged huPD-L1, cyPD-L1, or muPD-L1 (1 μg/mL in PBS) were immobilized in wells of a 96-well assay plate overnight at 4° C. After washing and blocking steps, 30 μL of antibody supernatant were added to the plate and incubated at room temperature for 1 hr. Bound human antibody was detected using horseradish peroxidase (HRP)-conjugated goat anti-human Fc (Invitrogen Cat. No. 109-035-097; diluted 1:5000) or goat anti-mouse Fc HRP (Invitrogen Cat. No. 115-035-071) as a control. Bound antibody was detected with 1-Step Ultra™ TMB-ELISA Substrate (ThermoFisher Scientific Cat. No. 34029). When the reaction was complete the reaction was stopped, and the plate was read at 450 nm.
(§2) Anti-PD-L1 antibodies, described in Example 1A and manufactured substantially as described in Example 1B, were tested for to huPD-L1 and cyPD-L1 by ELISA substantially as described in Example 1A, using 12 dilutions of antibody ranging from 1 ng/ml to 3 mg/mL.

[2] = target: T1, human PD-L1 expressed on cells; assay: flow cytometry on unstimulated A431 cells (MFI against antibody concentration)
Method: Approximately 2.5×10⁵ A431 squamous cell carcinoma cells were plated in a final volume of 50 μL FACS buffer (phosphate buffered saline, 1% fetal bovine serum, 5 mM EDTA) in 96-well plates. 50 μL 2× Zombie Violet (BioLegend) were added to each well, and the plates were incubated 20-30 minutes at room temperature, protected from light. After incubation, 150 μL FACS buffer were added to each well. The plates were centrifuged at 500×g for 5 minutes. The supernatant was removed, and the cell pellet were resuspended in 200 μL FACS buffer. The wash procedure was repeated for a total of 2-3 washes. […] After the cells were incubated with the primary anti-PD-L1 antibody 1 hour on ice, protected from light, 150 μL FACS buffer were added to each well. The plates were then centrifuged, the supernatant was removed, and the cells were resuspended in 250 μL FACS buffer three times. After the third wash, the cells were resuspended in 100 μL goat anti-human IgG-Alexa Fluor 488 secondary antibody, and incubated for 30 minutes on ice, protected from light. After 3 washes as previously described, the cells were resuspended in 200 μL FACS buffer. The cells were then analyzed using a CytoFLEX flow cytometer.

6xHis-tagged cyPD-L1 = target: T3, 6xHis-tagged cyPD-L1 (cynomolgus monkey, UniProt Q9NZQ7 19-238 (human entry)); assay: ELISA, plate-coated 6xHis cyPD-L1, OD 450 nm
T3 construct: The assay text says only '6xHis-tagged cyPD-L1'; also called cynomolgus PD-L1; not shown: 6xHis tag
T3 sequence (Q9NZQ7 other isoform, or with tags, fused parts or gaps): as the sequence (Q9NZQ7 19-238) above, with A33T, A34S, S62N, R68Q, Q82R, F173L, T185A, T192I, H215L counted along it
Method: as §1, §2

[3] = target: T4, human B7-2/CD86 (RD Systems 9090-B2) (human, UniProt P42081 24-247, limits assumed); assay: ELISA, plate-coated human B7-2/CD86 (1 µg/mL), OD 450 nm, B7 ligand specificity panel
T4 sequence (looked up): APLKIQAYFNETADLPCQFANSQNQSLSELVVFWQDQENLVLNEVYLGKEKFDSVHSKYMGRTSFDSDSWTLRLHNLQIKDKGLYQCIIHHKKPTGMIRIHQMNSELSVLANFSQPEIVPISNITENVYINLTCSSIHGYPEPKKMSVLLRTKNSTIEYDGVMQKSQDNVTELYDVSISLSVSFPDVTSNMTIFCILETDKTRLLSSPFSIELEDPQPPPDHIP
Method: as §1
Briefly, wells of a 96-well plate (Corning 3690) were incubated with 30 μL human PD-L1 (RD Systems 9049-B7), human PD-L2 (RD Systems 9075-PL), human B7-1/CD80 (RD Systems 9050-B1), human B7-2/CD86 (RD Systems 9090-B2), human B7-H2 (RD Systems 8206-B7), or human B7-H3 (RD Systems 1949-B3), at a concentration of 1 μg/mL in PBS, overnight at 4C, to coat the wells with ligand. After washing and blocking steps, 30 μL of antibody at 8 concentrations ranging from 1 ng/mL to 3 mg/mL were added to the plate and incubated at room temperature for 1 hr. Bound human antibody was detected as described above.

[4] = target: T5, PD-L1-His (Acro Cat PDL-H5229) (human, UniProt Q9NZQ7 19-238); assay: SPR (Biacore 4000), antibody captured on anti-human CM4 chip, PD-L1-His analyte, 25° C.
T5 construct: also called human PD-L1 (SPR analyte); not shown: His tag
T5 sequence (Q9NZQ7 19-238 limits assumed): as the sequence (Q9NZQ7 19-238) above
Method: The binding affinities of the generated antibodies to human PD-L1 were determined by surface plasmon resonance. […] PD-L1-His (Acro Cat PDL-H5229) was tested for binding in a 3-fold titration series up to 100 nM. Data were collected in HBS-P (pH 7.4) at 37° C. and 25° C.

T1 sequence (Q9NZQ7 19-290): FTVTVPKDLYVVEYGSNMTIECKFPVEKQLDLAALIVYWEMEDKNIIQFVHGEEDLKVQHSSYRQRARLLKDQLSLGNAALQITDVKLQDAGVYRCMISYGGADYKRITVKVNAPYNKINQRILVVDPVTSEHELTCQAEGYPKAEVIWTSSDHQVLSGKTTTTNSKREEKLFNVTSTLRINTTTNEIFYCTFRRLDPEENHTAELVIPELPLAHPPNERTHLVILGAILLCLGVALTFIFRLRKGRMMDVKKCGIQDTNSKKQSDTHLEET

- EC50 [1]: 0.0199 µg/mL
- EC50 (6xHis-tagged huPD-L1): 0.0359 µg/mL
- EC50 [2]: 0.0159 µg/mL
- EC50 (6xHis-tagged cyPD-L1): 0.0338 µg/mL
- EC50 [3]: 1.14 µg/mL
- Kd [4]: 0.27 nM
- koff [4]: 5.1e-05 s⁻¹
- kon [4]: 190000 M⁻¹ s⁻¹
B1: 1P9 (antibody, V domains shown)
VH: EVQLVESGGGLVQPGGSLRLSCAASGFTFSTYWMSWVRQAPGKGLEWVANIKQDGGERYYVDSVKGRFTISRDNAKSSLYLQMNSLRAEDTALYYCARLRLYSDYEDYWGQGTLVTVSS
VL: DIQMTQSPSSVSASVGDRVTITCRASQGISSWLAWYQQKPGKAPKLLIYSVSSLQSGVPSRFSGSGSGTDFTLTISSLQPEDSATYYCQQANSLPPTFGGGTKVEIK
notes: Recombinant full-length human antibody expressed in CHO K1 GS KO cells, with wild-type human Fc; also called anti-PD-L1 antibody 1P9; Unconj; 1P9
